This note sets out measurements from publication PMC7486785 (Proceedings of the National Academy of Sciences of the …, 2020).

For orientation: Kd means the constant that tells how readily two partners part at equilibrium.

B1: Hy10 Fab (Fab, V domains shown)
VH: DVQLQESGPSLVKPSQTLSLTCSVTGDSITSDYWSWIRKFPGNRLEYMGYVSYSGSTYYNPSLKSRISITRDTSKNQYYLDLNSVTTEDTATYYCANWDGDYWGQGTLVTVSA
VL: DIVLTQSPATLSVTPGNSVSLSCRASQSIGNNLHWYQQKSHESPRLLIKYASQSISGIPSRFSGSGSGTDFTLSINSVETEDFGMYFCQQSNSWPYTFGGGTKLEIK
notes: Hy10 Fab heavy chain; Hy10 Fab light chain; Biotinylated only for BLI, not for the crystals; also called HyHEL10; WT founder antibody; source: Expi293, transient, purified (Talon, gel filtration)
B2: HyHEL10 (Hy10) Fab, WT founder (Fab, V domains shown)
VH: B1 VH
VL: B1 VL
notes: heavy chain of Hy10 Fab; light chain of Hy10 Fab; also called Hy10WT; source: Expi293, transient (pCEP4), purified (Talon resin, gel filtration)
B3: Hy10 Fab S56R (Fab, V domains shown)
VH: B1 VH with S56R
VL: B1 VL
notes: as the heavy chain of Dm5 with the stated changes; as the light chain of Dm5; also called Hy10-S56R; source: Expi293, transient (pCEP4), purified (Talon resin, gel filtration)
B4: Hy10 Fab S52T/Y58F (Fab, V domains shown)
VH: B1 VH with S52T, Y58F
VL: B1 VL
notes: as the heavy chain of Dm5 with the stated changes; as the light chain of Dm5; source: Expi293, transient (pCEP4), purified (Talon resin, gel filtration)
B5: Hy10 Fab S52T/Y53F (Fab, V domains shown)
VH: B1 VH with S52T, Y53F
VL: B1 VL
notes: as for B4
B6: Hy10 Fab I29F/S52T (Fab, V domains shown)
VH: B1 VH with I29F, S52T
VL: B1 VL
notes: as for B4
B7: Hy10 Fab Y53F/Y58F (Fab, V domains shown)
VH: B1 VH with Y53F, Y58F
VL: B1 VL
notes: as for B4
B8: Hy10 Fab I29F/S52T/Y58F (Fab, V domains shown)
VH: B1 VH with I29F, S52T, Y58F
VL: B1 VL
notes: as for B4
B9: Hy10 Fab S31N (Fab, V domains shown)
VH: B1 VH with S31N
VL: B1 VL
notes: as for B4
B10: Hy10 Fab L4F/Y33H (Fab, V domains shown)
VH: B1 VH with L4F, Y33H
VL: B1 VL
notes: as for B4
B11: Hy10 Fab S52T/Y53F/Y58F (Fab, V domains shown)
VH: B1 VH with S52T, Y53F, Y58F
VL: B1 VL
notes: as for B4
B12: Hy10 Fab I29F/S52T/Y53F (Fab, V domains shown)
VH: B1 VH with I29F, S52T, Y53F
VL: B1 VL
notes: as for B4
B13: Hy10 Fab I29F (Fab, V domains shown)
VH: B1 VH with I29F
VL: B1 VL
notes: as for B4
B14: Hy10 Fab L4F (Fab, V domains shown)
VH: B1 VH with L4F
VL: B1 VL
notes: as for B4
B15: Hy10 Fab Y53F/S56R (Fab, V domains shown)
VH: B1 VH with Y53F, S56R
VL: B1 VL
notes: as for B4
B16: Hy10 Fab I29F/S52T/Y53F/Y58F (Fab, V domains shown)
VH: B1 VH with I29F, S52T, Y53F, Y58F
VL: B1 VL
notes: as for B4
B17: Hy10 Fab S52T (Fab, V domains shown)
VH: B1 VH with S52T
VL: B1 VL
notes: as for B4
B18: Hy10 Fab Y33H (Fab, V domains shown)
VH: B1 VH with Y33H
VL: B1 VL
notes: as the heavy chain of Dm5 with the stated changes; as the light chain of Dm5; also called Hy10-Y33H; source: Expi293, transient (pCEP4), purified (Talon resin, gel filtration)
B19: Hy10 Fab Y53F (Fab, V domains shown)
VH: B1 VH with Y53F
VL: B1 VL
notes: as for B4
B20: Hy10 Fab Y58F (Fab, V domains shown)
VH: B1 VH with Y58F
VL: B1 VL
notes: as for B4

Positions count from the first letter of the chain named. Names may count otherwise.

The first experiment deals with Duck egg lysozyme (DEL). The experiment is described as follows: bio-layer interferometry. The note with it: parent: est. 2.5e7 M-1; read off a plot. (In BLI a coated tip is dipped into the sample, and binding shifts an interference pattern.)
Consider Hy10 Fab S52N, for which the Ka was below 100000 M⁻¹.

Another experiment deals with VH substitutions L4F, S31N, Y33H, and S56N. The experiment is described as follows: BLI; BLItz; biotinylated Fab loaded on streptavidin biosensors, lysozyme proteins in solution at a range of molar concentrations; PBS (sensors rehydrated in PBS with 0.1% BSA); global fit, 1:1 Fab-lysozyme interaction; affinities printed as 1/KD.
Conditions: not given
The molecule “HEL^3X self-lysozyme (from UniProt P00698 19-147) (natural protein)” displayed a fold decrease in affinity against Hy10 of 3 to 39 fold.

The next experiment deals with T1, Duck egg lysozyme (DEL) (Anas platyrhynchos, DEL-II double mutant, strain).
T1 construct: duck egg lysozyme, DEL-II isoform, D65N + N103D double mutant; source: P. pastoris, secreted, purified (ion exchange)
T1 chain: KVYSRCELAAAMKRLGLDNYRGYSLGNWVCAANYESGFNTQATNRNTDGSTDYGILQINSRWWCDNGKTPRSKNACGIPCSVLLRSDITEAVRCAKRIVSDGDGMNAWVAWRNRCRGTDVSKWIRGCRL
The description is as above. The note with it: both partners purified.
As for B1, the Ka worked out at 2.5e+07 M⁻¹.

For the next experiment, the target named is T2, Duck egg lysozyme (DEL), D65N + N103D double mutant of the DEL-II isoform (Anas platyrhynchos, DEL-II double mutant, strain).
T2 construct: duck egg lysozyme, DEL-II isoform, D65N + N103D double mutant; differs from HEL3X at 25 amino acids; source: Pichia pastoris, secreted, purified from culture supernatant (ion exchange)
T2 chain: T1 chain
Nature of the experiment: BLI; BLItz (ForteBio); biotinylated Hy10 Fab variant immobilised on streptavidin biosensors (rehydrated in PBS with 0.1% wt/vol BSA); soluble monomeric lysozyme antigen as analyte at a range of concentrations; global fit, 1:1 Fab-lysozyme interaction. The note with it: both partners purified.
As for B2, the Ka came out at 2.49e+07 M⁻¹ and the Kd was found to be 40.1 nM.

In the case of B3, the Ka is 4.41e+06 M⁻¹ and the Kd amounted to 227 nM.

In the case of B4, the Ka worked out at 3.8e+08 M⁻¹ and the Kd stood at 2.62 nM. On the same counts, the results for B5 are 2.81e+08 M⁻¹ and 3.56 nM. On the same counts, the results for B6 are 1.73e+08 M⁻¹ and 5.79 nM. On the same counts, the results for B7 are 1.13e+08 M⁻¹ and 8.85 nM.

On to B8, for which the Ka was 5.92e+08 M⁻¹ and the Kd came to 1.69 nM. In the case of B9, the Ka was determined as 9.6e+06 M⁻¹ and the Kd was 104 nM. On the same counts, the results for B10 are 5.8e+06 M⁻¹ and 172 nM.

For the molecule B11, the Ka stood at 1.99e+09 M⁻¹ and the Kd is 0.502 nM.

For B12, the Ka was 6.1e+09 M⁻¹ and the dissociation constant (Kd) turned out to be 0.164 nM. On the same counts, the results for B13 are 6.37e+07 M⁻¹ and 15.7 nM. In the same order, the values of B14 are 3.25e+06 M⁻¹ and 308 nM.

For the molecule B15, the Ka was determined as 3.73e+07 M⁻¹ and the Kd came to 26.8 nM. Take B16: the Ka came to 7.51e+09 M⁻¹ and the Kd amounted to 0.133 nM. Regarding B17, the Ka came to 2.98e+07 M⁻¹ and the equilibrium dissociation constant (Kd) was 33.5 nM. With B18, the Ka was 1.68e+06 M⁻¹ and the Kd is 594 nM. In the same order, the values of B19 are 1.2e+08 M⁻¹ and 8.35 nM. As to B20, the Ka turned out to be 9.35e+07 M⁻¹ and the Kd is 10.7 nM.
